Test results from publication PMC10641528, “A conserved, noncanonical insert in FIS1 mediates TBC1D15 and DRP1 recruitment for mitochondrial fission” (The Journal of Biological Chemistry, 2023).

B1: Mitochondrial fission protein 1 (FIS1), wildtype, ectopically expressed from pcDNA-FIS1 WT (natural protein, human)
chain: MEAVLNELVSVEDLLKFEKKFQSEKAAGSVSKSTQFEYAWCLVRSKYNDDIRKGIVLLEELLPKGSKEEQRDYVFYLAVGNYRLKEYEKALKYVRGLLQTEPQNNQAKELERLIDKAMKKDGLVGMAIVGGMALGVAGLAGLIGL
notes: human mitochondrial fission protein 1 (FIS1), wildtype, expressed from pcDNA; No tag is mentioned; detected with an anti-FIS1 antibody; also called WT FIS1; source: HCT116, transfected, in lysate (PFA cross-linked cells)
B2: FIS1 AAA variant (SKY insert substituted with three alanines) (natural protein, human)
chain: MEAVLNELVSVEDLLKFEKKFQSEKAAGSVSKSTQFEYAWCLVRAAANDDIRKGIVLLEELLPKGSKEEQRDYVFYLAVGNYRLKEYEKALKYVRGLLQTEPQNNQAKELERLIDKAMKKDGLVGMAIVGGMALGVAGLAGLIGL
notes: human FIS1 with S45, K46, Y47 replaced by three Ala, expressed from pcDNA; also called AAA FIS1 variant; source: HCT116, transfected, in lysate (PFA cross-linked cells)
B3: FIS1 D49G variant (natural protein, human)
chain: MEAVLNELVSVEDLLKFEKKFQSEKAAGSVSKSTQFEYAWCLVRSKYNGDIRKGIVLLEELLPKGSKEEQRDYVFYLAVGNYRLKEYEKALKYVRGLLQTEPQNNQAKELERLIDKAMKKDGLVGMAIVGGMALGVAGLAGLIGL
notes: human FIS1 that keeps the SKY insert, with D49 replaced by Gly, expressed from pcDNA; source: HCT116, transfected, in lysate (PFA cross-linked cells)
B4: FIS1 ΔSKY variant (SKY insert deleted) (natural protein, human)
chain: MEAVLNELVSVEDLLKFEKKFQSEKAAGSVSKSTQFEYAWCLVRNDDIRKGIVLLEELLPKGSKEEQRDYVFYLAVGNYRLKEYEKALKYVRGLLQTEPQNNQAKELERLIDKAMKKDGLVGMAIVGGMALGVAGLAGLIGL
notes: human FIS1 with S45, K46, Y47 deleted, expressed from pcDNA; source: HCT116, transfected, in lysate (PFA cross-linked cells)
B5: FIS1 ΔSKYD49G variant (SKY insert deleted, D49 replaced by Gly) (natural protein, human)
chain: MEAVLNELVSVEDLLKFEKKFQSEKAAGSVSKSTQFEYAWCLVRNGDIRKGIVLLEELLPKGSKEEQRDYVFYLAVGNYRLKEYEKALKYVRGLLQTEPQNNQAKELERLIDKAMKKDGLVGMAIVGGMALGVAGLAGLIGL
notes: human FIS1 with S45, K46, Y47 deleted and D49 replaced by Gly (wildtype numbering), expressed from pcDNA; source: HCT116, transfected, in lysate (PFA cross-linked cells)

These molecules were tested against DRP1, endogenous (dynamin family GTPase) (human (endogenous in HCT116)) (UniProt O00429) (assay: co-IP; endogenous DRP1 immunoprecipitated (mouse monoclonal sc-271583 on protein A/G beads) from lysates of HCT116 cells transfected with pcDNA or pcDNA-FIS1 variants and cross-linked with 0.25% PFA; FIS1 blotted; scored as ratio of immunoprecipitated to input FIS1; lysis buffer 10 mM Tris/Cl pH 7.5, 150 mM NaCl, 0.5 mM EDTA, 0.5% NP-40 substitute). Conditions: not given.
Chain of DRP1, endogenous (dynamin family GTPase) (human (endogenous in HCT116)) (O00429 whole entry): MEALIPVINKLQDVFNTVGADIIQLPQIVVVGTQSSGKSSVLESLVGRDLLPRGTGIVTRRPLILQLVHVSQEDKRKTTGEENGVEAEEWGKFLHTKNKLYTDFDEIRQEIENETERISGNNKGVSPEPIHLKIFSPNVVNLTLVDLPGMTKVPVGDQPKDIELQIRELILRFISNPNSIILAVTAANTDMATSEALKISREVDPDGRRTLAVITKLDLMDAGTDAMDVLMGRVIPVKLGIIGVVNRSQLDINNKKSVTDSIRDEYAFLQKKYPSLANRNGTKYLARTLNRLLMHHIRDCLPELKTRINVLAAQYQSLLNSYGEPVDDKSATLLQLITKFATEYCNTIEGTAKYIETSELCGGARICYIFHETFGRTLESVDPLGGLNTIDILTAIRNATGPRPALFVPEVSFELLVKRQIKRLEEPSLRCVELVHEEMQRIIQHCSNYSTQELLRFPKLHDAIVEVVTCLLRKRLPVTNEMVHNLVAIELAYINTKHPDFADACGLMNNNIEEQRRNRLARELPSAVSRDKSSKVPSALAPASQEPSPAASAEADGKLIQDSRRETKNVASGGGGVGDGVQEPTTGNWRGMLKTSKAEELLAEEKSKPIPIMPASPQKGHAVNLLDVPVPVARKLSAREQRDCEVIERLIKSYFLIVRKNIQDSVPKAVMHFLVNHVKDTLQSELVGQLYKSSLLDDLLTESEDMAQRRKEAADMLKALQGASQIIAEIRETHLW

| Molecule | ratio of immunoprecipitated to input FIS1 |
| --- | --- |
| FIS1 5LA variant (five conserved TPR Leu residues replaced with Ala) (from UniProt Q9Y3D6 1-145) (natural protein) | 3.9 |

These molecules were tested against T1, DRP1, endogenous (dynamin family GTPase) (human (endogenous in HCT116), UniProt O00429 1-736) in the same assay as above. Conditions: partners not purified.
T1 construct: DRP1 endogenous in HCT116 cells; Immunoprecipitated with mouse monoclonal DRP1 antibody sc-271583; source: endogenous, HCT116 lysate (PFA cross-linked cells)
T1 sequence (O00429 whole entry): as above

| Molecule | ratio of immunoprecipitated to input FIS1 |
| --- | --- |
| B1 | 0.7 ± 0.1 |
| B2 | 0.9 ± 0.1 |
| B3 | 0.7 ± 0.3 |
| B4 | 1.3 ± 0.9 |
| B5 | 0.9 ± 0.2 |
